Assay results: patent US20250170209A1 (published 2025)
Each block holds one binder with its values, some of them ahead of it.

Experiments:
complement component C3 [1] = target: T1, complement component C3 (human, UniProt P01024 23-1663); test: cell-based or functional assay
complement component C3 [2] = target: T1, complement component C3; test: cell-based or functional assay; remark: listed apart in the source

- IC50 on a molar basis (calculated for 7.5 CA28 moieties per molecule); classical complement inhibition assay (complement component C3 [1]): ~260 nM
- IC50 as a function of CA28 concentration (per peptide moiety); classical complement inhibition assay (complement component C3 [2]): 1930 nM
B1: (CA28-AEEAc)8-PEG40k (peptide)
peptide: ICVXQDWGAHRCTK
modifications: not fully specified; N-terminal acetyl; 1-methyl-tryptophan at position 4; disulfide Cys2-Cys12; AEEAc between Thr13 and Lys; Lys side chain coupled to one arm of an eight-arm 40 kD PEG (SUNBRIGHT HGEO-400GS); C-terminal amide

- activity relative to CA28 on a molar basis; classical complement inhibition assay (complement component C3 [1]): ~30 % of the activity of CA28
- IC50; classical complement inhibition assay (C3b deposition ELISA, human plasma) (complement component C3 [2]): 1260 nM
B2: CA28-AEEAc-Lys-(PEG30k) (peptide)
peptide: ICVXQDWGAHRCTK
modifications: not fully specified; N-terminal acetyl; 1-methyl-tryptophan at position 4; disulfide Cys2-Cys12; AEEAc (8-amino-3,6-dioxaoctanoyl) between Thr13 and Lys; linear monofunctional 30 kD PEG (SUNBRIGHT ME-300GS) on the Lys side chain; C-terminal amide

- activity relative to CA28 on a molar basis; classical complement inhibition assay (complement component C3 [1]): ~30 % of the activity of CA28
- IC50; classical complement inhibition assay (C3b deposition ELISA, human plasma) (complement component C3 [2]): 1290 nM
B3: CA28-AEEAc-Lys-(PEG40k) (peptide)
peptide: ICVXQDWGAHRCTK
modifications: not fully specified; N-terminal acetyl; 1-methyl-tryptophan at position 4; disulfide Cys2-Cys12; AEEAc (8-amino-3,6-dioxaoctanoyl) between Thr13 and Lys; linear monofunctional 40 kD methoxy-PEG (SUNBRIGHT ME-400GS) on the Lys side chain; C-terminal amide
